Experimental data from IntAct's records for PubMed 22215984.

B1: Transcriptional regulatory protein ComA (Bacillus subtilis), P14204 (parent)
chain: MKKILVIDDHPAVMEGTKTILETDSNLSVDCLSPEPSEQFIKQHDFSSYDLILMDLNLGGEVNGMELSKQILQENPHCKIIVYTGYEVEDYFEEAIRAGLHGAISKTESKEKITQYIYHVLNGEILVDFAYFKQLMTQQKTKPAPSSQKEQDVLTPRECLILQEVEKGFTNQEIADALHLSKRSIEYSLTSIFNKLNVGSRTEAVLIAKSDGVL
partner: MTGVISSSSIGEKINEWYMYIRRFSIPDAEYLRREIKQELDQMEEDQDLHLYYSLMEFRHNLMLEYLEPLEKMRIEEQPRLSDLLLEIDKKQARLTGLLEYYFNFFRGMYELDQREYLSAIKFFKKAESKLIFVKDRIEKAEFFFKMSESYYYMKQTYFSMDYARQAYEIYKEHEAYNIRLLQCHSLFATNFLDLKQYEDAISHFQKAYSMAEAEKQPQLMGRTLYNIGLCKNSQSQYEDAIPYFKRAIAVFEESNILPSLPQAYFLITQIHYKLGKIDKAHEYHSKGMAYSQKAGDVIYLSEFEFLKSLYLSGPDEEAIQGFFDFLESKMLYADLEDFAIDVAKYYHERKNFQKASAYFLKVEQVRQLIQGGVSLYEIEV
B2: Regulatory protein RapF (Bacillus subtilis), P71002 (parent)
chain: B1 partner
partner: B1 chain

Variants of: B1
Details: with rapf_bacsu rapF

Row | effect of a mutation on the interaction | Variant
1 | decreasing interaction | MKKILVIDDHPAVMEGTKTILETDSNLSVDCLSPEPSEQFIKQHDFSSYDLILMDLNLGGEVNGMELSKQILQENPHCKIIVYTGYEVEDYFEEAIRAGLHGAISKTESKEKITQYIYHVLNGEILVDFAYFKQLMTQQKTKPAPSSQKEQDVLTPRECLILQEVEKGFTNQEIADALHLSKRSIEYSLTSIFAKLNVGSRTEAVLIAKSDGVL [N194A]
2 | decreasing interaction | MKKILVIDDHPAVMEGTKTILETDSNLSVDCLSPEPSEQFIKQHDFSSYDLILMDLNLGGEVNGMELSKQILQENPHCKIIVYTGYEVEDYFEEAIRAGLHGAISKTESKEKITQYIYHVLNGEILVDFAYFKQLMTQQKTKPAPSSQKEQDVLTPRECLILQEVEKGFTNQEIADALHLSKRSIEYSLASIFNKLNVGSRTEAVLIAKSDGVL [T190A]
3 | decreasing interaction | MKKILVIDDHPAVMEGTKTILETDSNLSVDCLSPEPSEQFIKQHDFSSYDLILMDLNLGGEVNGMELSKQILQENPHCKIIVYTGYEVEDYFEEAIRAGLHGAISKTESKEKITQYIYHVLNGEILVDFAYFKQLMTQQKTKPAPSSQKEQDVLTPRECLILQEVEKGFTNQEIADALHLSKASIEYSLTSIFNKLNVGSRTEAVLIAKSDGVL [R183A]
4 | decreasing interaction | MKKILVIDDHPAVMEGTKTILETDSNLSVDCLSPEPSEQFIKQHDFSSYDLILMDLNLGGEVNGMELSKQILQENPHCKIIVYTGYEVEDYFEEAIRAGLHGAISKTESKEKITQYIYHVLNGEILVDFAYFKQLMTQQKTKPAPSSQKEQDVLTPRECLILQEVEKGFTNQEIADALHLSKRSIEASLTSIFNKLNVGSRTEAVLIAKSDGVL [Y187A]

Variants of: B2
Details: with cmpa_bacsu comA

Row | effect of a mutation on the interaction | Variant
5 | disrupting interaction | MTGVISSSSIGEKINEWYMYIRRFSIPAAEYLRREIKQELDQMEEDQDLHLYYSLMEFRHNLMLEYLEPLEKMRIEEQPRLSDLLLEIDKKQARLTGLLEYYFNFFRGMYELDQREYLSAIKFFKKAESKLIFVKDRIEKAEFFFKMSESYYYMKQTYFSMDYARQAYEIYKEHEAYNIRLLQCHSLFATNFLDLKQYEDAISHFQKAYSMAEAEKQPQLMGRTLYNIGLCKNSQSQYEDAIPYFKRAIAVFEESNILPSLPQAYFLITQIHYKLGKIDKAHEYHSKGMAYSQKAGDVIYLSEFEFLKSLYLSGPDEEAIQGFFDFLESKMLYADLEDFAIDVAKYYHERKNFQKASAYFLKVEQVRQLIQGGVSLYEIEV [D28A]
6 | disrupting interaction | MTGVISSSSIGEKINEWYMYIRRASIPDAEYLRREIKQELDQMEEDQDLHLYYSLMEFRHNLMLEYLEPLEKMRIEEQPRLSDLLLEIDKKQARLTGLLEYYFNFFRGMYELDQREYLSAIKFFKKAESKLIFVKDRIEKAEFFFKMSESYYYMKQTYFSMDYARQAYEIYKEHEAYNIRLLQCHSLFATNFLDLKQYEDAISHFQKAYSMAEAEKQPQLMGRTLYNIGLCKNSQSQYEDAIPYFKRAIAVFEESNILPSLPQAYFLITQIHYKLGKIDKAHEYHSKGMAYSQKAGDVIYLSEFEFLKSLYLSGPDEEAIQGFFDFLESKMLYADLEDFAIDVAKYYHERKNFQKASAYFLKVEQVRQLIQGGVSLYEIEV [F24A]
7 | decreasing interaction | MTGVISSSSIGEKINEWYMYIRRFSIPDAEYLRREIKQELDQMEEDQDLHLYYSLMEFRHNLMLEYLEPLEKMRIEEAPRLSDLLLEIDKKQARLTGLLEYYFNFFRGMYELDQREYLSAIKFFKKAESKLIFVKDRIEKAEFFFKMSESYYYMKQTYFSMDYARQAYEIYKEHEAYNIRLLQCHSLFATNFLDLKQYEDAISHFQKAYSMAEAEKQPQLMGRTLYNIGLCKNSQSQYEDAIPYFKRAIAVFEESNILPSLPQAYFLITQIHYKLGKIDKAHEYHSKGMAYSQKAGDVIYLSEFEFLKSLYLSGPDEEAIQGFFDFLESKMLYADLEDFAIDVAKYYHERKNFQKASAYFLKVEQVRQLIQGGVSLYEIEV [Q78A]
8 | decreasing interaction | MTGVISSSSIGEKINEWYMYIRRFSIADAEYLRREIKQELDQMEEDQDLHLYYSLMEFRHNLMLEYLEPLEKMRIEEQPRLSDLLLEIDKKQARLTGLLEYYFNFFRGMYELDQREYLSAIKFFKKAESKLIFVKDRIEKAEFFFKMSESYYYMKQTYFSMDYARQAYEIYKEHEAYNIRLLQCHSLFATNFLDLKQYEDAISHFQKAYSMAEAEKQPQLMGRTLYNIGLCKNSQSQYEDAIPYFKRAIAVFEESNILPSLPQAYFLITQIHYKLGKIDKAHEYHSKGMAYSQKAGDVIYLSEFEFLKSLYLSGPDEEAIQGFFDFLESKMLYADLEDFAIDVAKYYHERKNFQKASAYFLKVEQVRQLIQGGVSLYEIEV [P27A]
9 | disrupting interaction | MTGVISSSSIGEKINEWYMYIRRFSIPDAEYLRREIKQELDQMEEDQDLHLYYSLMEFRHNLMLEYAEPLEKMRIEEQPRLSDLLLEIDKKQARLTGLLEYYFNFFRGMYELDQREYLSAIKFFKKAESKLIFVKDRIEKAEFFFKMSESYYYMKQTYFSMDYARQAYEIYKEHEAYNIRLLQCHSLFATNFLDLKQYEDAISHFQKAYSMAEAEKQPQLMGRTLYNIGLCKNSQSQYEDAIPYFKRAIAVFEESNILPSLPQAYFLITQIHYKLGKIDKAHEYHSKGMAYSQKAGDVIYLSEFEFLKSLYLSGPDEEAIQGFFDFLESKMLYADLEDFAIDVAKYYHERKNFQKASAYFLKVEQVRQLIQGGVSLYEIEV [L67A]
